Data on eight molecules can be found in patent US20180280496A1.

The target of test [1] is A*11:01 (human), P04439. Particulars: modification not given.
In test [2] the target is T1, A*03:01 (human), P04439.
T1 chain: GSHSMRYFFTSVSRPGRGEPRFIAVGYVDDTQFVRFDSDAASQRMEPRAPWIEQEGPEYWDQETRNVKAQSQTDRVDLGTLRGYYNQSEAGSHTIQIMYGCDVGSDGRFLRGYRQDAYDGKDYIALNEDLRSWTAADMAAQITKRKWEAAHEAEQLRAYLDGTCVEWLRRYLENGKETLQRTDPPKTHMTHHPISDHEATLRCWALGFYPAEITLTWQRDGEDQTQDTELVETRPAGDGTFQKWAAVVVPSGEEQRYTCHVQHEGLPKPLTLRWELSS
Particulars: modification not given.

In test [3] the target is A*11:01 (human), P04439. Kind of test: ProImmune REVEAL MHC class I-peptide binding assay.
Test [4] addresses A*03:01 (human), P04439. Nature of the test: ProImmune REVEAL MHC class I-peptide binding assay.
In test [5] the target is A*03:01 (human), P04439. Particulars: modification not given. This is another data set of the same source.
For test [6], the target named is A*11:01 (human), P04439. The note with it: modification not given. The source holds these as a separate data set.
Test [7] concerns the target A*03:01 (human), P04439. Particulars: modification not given. The source holds these as a separate data set.
In test [8] the target is A*11:01 (human), P04439. The note with it: modification not given. This is another data set of the same source.
For test [9], the target named is HLA-A*32:01. Particulars: chains peptide; modification not given.
For test [10], the target named is HLA-B*40:01. The note with it: chains peptide; modification not given.
Test [11] has as its target T1, A*03:01 (human), P04439. The note with it: modification not given.
The target in test [12] is A*11:01 (human), P04439. The note with it: modification not given. The source holds these as a separate data set.
A further test addresses A*24:02 (human), P04439. The note with it: modification not given.
The target of test [13] is HLA-B*40:01. The note with it: chains peptide; modification not given. The source holds these as a separate data set.
The target in test [14] is HLA-A*32:01. Particulars: chains peptide; modification not given. This is another data set of the same source.

By IC50 is commonly meant the concentration needed to halve the response being measured. A low value points to greater potency in that assay.

Where two headings read alike, the source gives them in different places.

As for ALKINWYRK [SEQ ID NO: 311 serotype 3], the 50% inhibitory concentration (IC50) in the test with A*11:01 (human), P04439 [1] came to 376 nM; with A*03:01 (human), P04439 [2], 193 nM.

With MCHATFTMR (modifications not checked) […], the REVEAL score at 0 h with A*11:01 (human), P04439 [3] came out at 91; with A*03:01 (human), P04439 [4], 86.8.

Turning to ALTLHWFRK [SEQ ID NO: 311 serotype 4], the IC50 is 34 nM in the test with A*03:01 (human), P04439 [5] and 47 nM in the test with A*11:01 (human), P04439 [6].

As for ALKLSWFKK [SEQ ID NO: 311 serotype 1], the IC50 is 42 nM with A*03:01 (human), P04439 [7] and 59 nM with A*11:01 (human), P04439 [8].

On to KQWFLDLPL [SEQ ID NO: 310 serotype 4], for which the values for the IC50 in the test with HLA-A*32:01 [9] and with HLA-B*40:01 [10] were 8 nM and 398 nM, respectively.

As to QLKLNWFKK [SEQ ID NO: 311 serotype 2], the IC50 in the test with A*03:01 (human), P04439 [11] is 151 nM; with A*11:01 (human), P04439 [12] it was 778 nM.

On to SYTMCSGKF [SEQ ID NO: 308 serotype 4], for which, in the test with A*24:02 (human), P04439, the 50% inhibitory concentration (IC50) stood at 222 nM.

Turning to KQWFLDLPL [SEQ ID NO: 310 serotype 1], the half-maximal inhibitory concentration (IC50) in the test with HLA-B*40:01 [13] was found to be 398 nM; with HLA-A*32:01 [14] it was 8 nM.
